Blank lines part the entries; values can stand above or below the binder they belong to.
How the values were obtained:
human LGR6 transgene = molecular target: T1, human LGR6 transgene (human, UniProt Q9HBX8 25-967); experiment: indirect immunofluorescence on HEK293T cells expressing human and murine LGR family transgenes (FIG. 14B)
T1 construct: whole, on cells; Overexpressed in HEK293T cells with N-terminal HA tag, V2 receptor tail and eGFP; also tested as lysate; also called hLGR6; LGR6-eGFP
T1 sequence (looked up): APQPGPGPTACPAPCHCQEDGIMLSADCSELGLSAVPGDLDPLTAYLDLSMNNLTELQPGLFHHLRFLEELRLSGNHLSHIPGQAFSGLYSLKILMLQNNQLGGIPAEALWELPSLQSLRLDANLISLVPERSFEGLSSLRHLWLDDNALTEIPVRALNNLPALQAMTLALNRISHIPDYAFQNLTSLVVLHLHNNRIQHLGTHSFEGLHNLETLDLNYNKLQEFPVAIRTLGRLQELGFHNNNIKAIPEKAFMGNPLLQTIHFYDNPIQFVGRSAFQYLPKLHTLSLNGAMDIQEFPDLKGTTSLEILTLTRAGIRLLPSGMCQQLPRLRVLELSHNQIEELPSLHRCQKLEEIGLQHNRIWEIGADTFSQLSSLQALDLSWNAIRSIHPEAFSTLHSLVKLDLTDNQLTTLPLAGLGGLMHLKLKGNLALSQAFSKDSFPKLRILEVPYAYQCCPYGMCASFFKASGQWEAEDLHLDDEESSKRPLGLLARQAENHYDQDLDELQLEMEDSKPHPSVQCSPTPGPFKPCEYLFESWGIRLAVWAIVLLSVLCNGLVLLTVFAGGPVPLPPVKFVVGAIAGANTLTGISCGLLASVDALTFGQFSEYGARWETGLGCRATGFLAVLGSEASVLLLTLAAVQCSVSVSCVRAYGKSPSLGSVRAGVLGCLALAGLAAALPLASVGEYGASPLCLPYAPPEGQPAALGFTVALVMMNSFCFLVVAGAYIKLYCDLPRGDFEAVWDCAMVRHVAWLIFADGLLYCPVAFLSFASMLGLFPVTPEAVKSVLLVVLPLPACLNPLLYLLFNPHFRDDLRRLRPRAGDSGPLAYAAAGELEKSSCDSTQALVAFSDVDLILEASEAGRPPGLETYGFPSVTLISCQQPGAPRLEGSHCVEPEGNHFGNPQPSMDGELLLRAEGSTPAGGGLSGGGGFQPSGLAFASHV

[1] = molecular target: T2, human LGR5-eGFP transgene (human, UniProt O75473 22-907); experiment: western blot of lysates of HEK293T cells expressing mLGR5, hLGR5 or cynoLGR5 transgenes, probed with hybridoma clone 1
T2 construct: Tested on live or fixed cells and as cell lysates on western blots; also called hLGR5-eGFP; LGR5-GFP
T2 sequence: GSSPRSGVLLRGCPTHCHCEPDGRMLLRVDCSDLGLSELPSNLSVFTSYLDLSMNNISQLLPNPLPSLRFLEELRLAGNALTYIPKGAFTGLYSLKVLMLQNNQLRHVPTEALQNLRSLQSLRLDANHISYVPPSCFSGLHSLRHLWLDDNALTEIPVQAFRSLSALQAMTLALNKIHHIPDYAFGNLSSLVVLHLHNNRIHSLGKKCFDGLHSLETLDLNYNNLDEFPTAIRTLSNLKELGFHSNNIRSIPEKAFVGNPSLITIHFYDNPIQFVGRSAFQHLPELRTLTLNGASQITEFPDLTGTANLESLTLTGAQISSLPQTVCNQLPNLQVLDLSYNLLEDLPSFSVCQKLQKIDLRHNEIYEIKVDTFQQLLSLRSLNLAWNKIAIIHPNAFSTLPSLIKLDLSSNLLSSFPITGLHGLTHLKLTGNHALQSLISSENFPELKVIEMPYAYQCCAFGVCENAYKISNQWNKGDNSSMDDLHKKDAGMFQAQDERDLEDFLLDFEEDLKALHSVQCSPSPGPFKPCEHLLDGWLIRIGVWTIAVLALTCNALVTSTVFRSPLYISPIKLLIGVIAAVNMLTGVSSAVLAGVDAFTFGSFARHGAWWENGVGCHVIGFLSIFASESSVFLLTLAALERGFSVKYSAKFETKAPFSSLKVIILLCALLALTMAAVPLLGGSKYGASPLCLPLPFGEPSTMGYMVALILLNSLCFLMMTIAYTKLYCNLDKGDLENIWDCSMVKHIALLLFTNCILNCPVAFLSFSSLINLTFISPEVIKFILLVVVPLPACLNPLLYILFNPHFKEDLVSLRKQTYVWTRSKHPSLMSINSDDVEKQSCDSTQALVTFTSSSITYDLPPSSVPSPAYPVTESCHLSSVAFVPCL

murine LGR5 transgene = molecular target: T3, murine LGR5 transgene (mouse, UniProt Q9Z1P4 22-907); experiment: as above
T3 construct: whole, on cells; Overexpressed in HEK293T cells with N-terminal HA tag, V2 receptor tail and eGFP; also tested as lysate; also called mLGR5; mLGR5-eGFP
T3 sequence (looked up): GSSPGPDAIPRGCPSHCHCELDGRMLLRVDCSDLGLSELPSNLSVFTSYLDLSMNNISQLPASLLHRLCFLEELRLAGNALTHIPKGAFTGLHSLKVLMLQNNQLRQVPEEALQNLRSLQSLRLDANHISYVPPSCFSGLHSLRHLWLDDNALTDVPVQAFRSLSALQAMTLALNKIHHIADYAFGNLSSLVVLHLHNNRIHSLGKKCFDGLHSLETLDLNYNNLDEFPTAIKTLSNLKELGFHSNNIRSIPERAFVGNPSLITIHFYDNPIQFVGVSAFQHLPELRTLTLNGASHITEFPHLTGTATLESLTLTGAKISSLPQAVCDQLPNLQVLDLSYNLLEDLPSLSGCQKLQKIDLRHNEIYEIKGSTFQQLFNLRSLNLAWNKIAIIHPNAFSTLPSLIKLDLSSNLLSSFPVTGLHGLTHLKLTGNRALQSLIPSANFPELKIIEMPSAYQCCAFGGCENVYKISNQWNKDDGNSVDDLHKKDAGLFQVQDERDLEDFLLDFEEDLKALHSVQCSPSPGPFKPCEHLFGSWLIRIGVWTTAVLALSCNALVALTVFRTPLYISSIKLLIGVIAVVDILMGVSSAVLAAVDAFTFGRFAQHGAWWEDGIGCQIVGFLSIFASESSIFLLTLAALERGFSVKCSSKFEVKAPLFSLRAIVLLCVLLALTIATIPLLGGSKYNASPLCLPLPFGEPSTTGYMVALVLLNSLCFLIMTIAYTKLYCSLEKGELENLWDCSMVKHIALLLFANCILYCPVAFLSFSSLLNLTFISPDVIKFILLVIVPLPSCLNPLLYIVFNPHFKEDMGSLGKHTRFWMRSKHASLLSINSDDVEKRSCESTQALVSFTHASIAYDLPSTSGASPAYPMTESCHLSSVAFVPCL

- binding result (human LGR6 transgene): no binding
B1: α-LGR5 variant 4 (antibody, human IgG1, kappa, V domains shown)
VH: QVQLVQSGAEVKKPGASVKVSCKASGYTFTNYWMQWVRQAPGQGLEWIGEIDPSDSYTNYNQKFQGRVTLTVDTSTSTAYMELSSLRSEDTAVYYCARSLSGYVDYWGQGTTVTVSS
VL: EIVMTQSPATLSLSPGERATLSCRASQDISNRLNWYQQKPGQAVRLLISYRSRRHTGIPARFSGSGSGTDYTLTISSLEPEDFAVYYCQQGNSLPPTFGGGTKLEIKR
notes: Humanized antibody; also called α-LGR5v4; clone 2.4

- binding result [1]: binds
- binding result (murine LGR5 transgene): no binding
B2: α-LGR5 clone 1 (antibody, mouse IgG1, kappa, V domains shown)
VH: QVQLQQPGAELVKPGASVKLSCKASGYTFTSYWMQWVKQRPGQGLEWIGEIDPSDYYTNYNQKFKGKATLTVDTSSSTAYMQLSSLTSEDSAVYYCARSLSGYVDYWGQGTTLTVSS
VL: DIQMTQSTSSLSASLGDRVTINCRASQDIRNRLNWYQQKPDGTVKLLISYRSRLQSGVPSRFSGSGSGTEYSLTISNLEQEDIATYFCQQGNTLPPTFGGGTKLEVRR
notes: Murine monoclonal antibody from hybridoma; also called hybridoma clone 1; antibody 1
